B1: Signaling lymphocytic activation molecule (Homo sapiens), Q13291 (parent)
chain: MDPKGLLSLTFVLFLSLAFGASYGTGGRMMNCPKILRQLGSKVLLPLTYERINKSMNKSIHIVVTMAKSLENSVENKIVSLDPSEAGPPRYLGDRYKFYLENLTLGIRESRKEDEGWYLMTLEKNVSVQRFCLQLRLYEQVSTPEIKVLNKTQENGTCTLILGCTVEKGDHVAYSWSEKAGTHPLNPANSSHLLSLTLGPQHADNIYICTVSNPISNNSQTFSPWPGCRTDPSETKPWAVYAGLLGGVIMILIMVVILQLRRRGKTNHYQTTVEKKSLTIYAQVQKPGPLQKKLDSFPAQDPCTTIYVAATEPVPESVQETNSITVYASVTLPES

Variants of: B1
Conditions: with hema_mease H

Variant | effect of a mutation on the interaction
MDPKGLLSLTFVLFLSLAFGASYGTGGRMMNCPKILRQLGSKVLLPLTYERINKSMNKSIHIVVTMAKSLENSVENKIVSLDPSEAGPPRALGDRYKFYLENLTLGIRESRKEDEGWYLMTLEKNVSVQRFCLQLRLYEQVSTPEIKVLNKTQENGTCTLILGCTVEKGDHVAYSWSEKAGTHPLNPANSSHLLSLTLGPQHADNIYICTVSNPISNNSQTFSPWPGCRTDPSETKPWAVYAGLLGGVIMILIMVVILQLRRRGKTNHYQTTVEKKSLTIYAQVQKPGPLQKKLDSFPAQDPCTTIYVAATEPVPESVQETNSITVYASVTLPES [Y91A] | decreasing interaction
MDPKGLLSLTFVLFLSLAFGASYGTGGRMMNCPKILRQLGSKVLLPLTYERINKSMNKSIHIVVTMAKSLENSVENKIVSLDPSEAGPPAYLGDRYKFYLENLTLGIRESRKEDEGWYLMTLEKNVSVQRFCLQLRLYEQVSTPEIKVLNKTQENGTCTLILGCTVEKGDHVAYSWSEKAGTHPLNPANSSHLLSLTLGPQHADNIYICTVSNPISNNSQTFSPWPGCRTDPSETKPWAVYAGLLGGVIMILIMVVILQLRRRGKTNHYQTTVEKKSLTIYAQVQKPGPLQKKLDSFPAQDPCTTIYVAATEPVPESVQETNSITVYASVTLPES [R90A] | decreasing interaction
MDPKGLLSLTFVLFLSLAFGASYGTGGRMMNCPKILRQLGSKVLLPLTYERINKSMNKSIHIVVTMAKSLENSVENKIVSLDPSEAGGGRYLGDRYKFYLENLTLGIRESRKEDEGWYLMTLEKNVSVQRFCLQLRLYEQVSTPEIKVLNKTQENGTCTLILGCTVEKGDHVAYSWSEKAGTHPLNPANSSHLLSLTLGPQHADNIYICTVSNPISNNSQTFSPWPGCRTDPSETKPWAVYAGLLGGVIMILIMVVILQLRRRGKTNHYQTTVEKKSLTIYAQVQKPGPLQKKLDSFPAQDPCTTIYVAATEPVPESVQETNSITVYASVTLPES [P88G;P89G] | decreasing interaction
